The record followed here is publication doi:10.1101/2020.04.06.028423 (bioRxiv, 2020).

B1: GST-NP(412-500) (domain or fragment)
chain: ASLPKTSGHYDDDDDIPFPGPINDDDNPGHQDDDPTDSQDTTIPDVVVDPDDGSYGEYQSYSENGMNAPDDLVLFDLDEDDEDTKPVPN

The assay deals with T1, His-tagged VP35 IID (VP35 aa 215-340) (Ebola virus (EBOV), UniProt Q05127 215-340).
T1 sequence: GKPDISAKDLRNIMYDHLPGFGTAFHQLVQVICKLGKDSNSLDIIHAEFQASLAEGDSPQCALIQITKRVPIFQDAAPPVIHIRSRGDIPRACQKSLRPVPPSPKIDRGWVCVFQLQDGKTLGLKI
Briefly: pull-down.
As to B1, the binding result is listed as “binds”. On to DDLVLFDLDEDDEDTKPVPN (domain or fragment) [GST-NP(481-500)], for which the binding result is recorded as “binds”. For DDLVLFDLDEDDED (domain or fragment) [GST-NP(481-494)], the binding result is “binds”.
